# B1: NRC3_wobSeed99_DR4_G16C_o1 (dsDNA)
# DNA 1: GCTCTCGGAGGACACCAAAGGTCAGAGCTCGACATCGCGATTGACAGCGTAGAATGAAGG
# DNA 2: CCTTCATTCTACGCTGTCAATCGCGATGTCGAGCTCTGACCTTTGGTGTCCTCCGAGAGC
# B2: NRC3_wobSeed99_DR4_G16T_o1 (dsDNA)
# DNA 1: GCTCTCGGAGGACACTAAAGGTCAGAGCTCGACATCGCGATTGACAGCGTAGAATGAAGG
# DNA 2: CCTTCATTCTACGCTGTCAATCGCGATGTCGAGCTCTGACCTTTAGTGTCCTCCGAGAGC
# B3: NRC3_wobSeed28_DR1_A14T_o1 (dsDNA)
# DNA 1: GCCCTACTGGGCCTAAGGTCATTGATTCCAATGCTCGCGATTGACAGCGTAGAATGAAGG
# DNA 2: CCTTCATTCTACGCTGTCAATCGCGAGCATTGGAATCAATGACCTTAGGCCCAGTAGGGC
# B4: NRC3_random_hg19_315_o1 (dsDNA)
# DNA 1: GCAGTCACACCTAACTGCAGGGAAGTCTATGAAATGGCGATTGACAGCGTAGAATGAAGG
# DNA 2: CCTTCATTCTACGCTGTCAATCGCCATTTCATAGACTTCCCTGCAGTTAGGTGTGACTGC
# B5: NRC3_wobSeed109_DR4_C6T_o1 (dsDNA)
# DNA 1: GCCGTTCAAGGTCATAGGAGGTCAGTGAAGACAGATGCGATTGACAGCGTAGAATGAAGG
# DNA 2: CCTTCATTCTACGCTGTCAATCGCATCTGTCTTCACTGACCTCCTATGACCTTGAACGGC
# B6: NRC3_wobSeed133_DR5_T16C_o1 (dsDNA)
# DNA 1: GCCGTCCAAGGTCAACGCTAGGTCAGTGAAAGCATTGCGATTGACAGCGTAGAATGAAGG
# DNA 2: CCTTCATTCTACGCTGTCAATCGCAATGCTTTCACTGACCTAGCGTTGACCTTGGACGGC
# B7: NRC3_wobSeed4_DR0_C7G_o1 (dsDNA)
# DNA 1: GCCCTAGTGGGCCAAGGTCATTGATCAGTCAAAGCAGCGATTGACAGCGTAGAATGAAGG
# DNA 2: CCTTCATTCTACGCTGTCAATCGCTGCTTTGACTGATCAATGACCTTGGCCCACTAGGGC
# B8: NRC3_wobSeed76_DR3_T5A_o1 (dsDNA)
# DNA 1: GCCCAACTGGGCCAAAAAGGTCATTGATGCCGATAAGCGATTGACAGCGTAGAATGAAGG
# DNA 2: CCTTCATTCTACGCTGTCAATCGCTTATCGGCATCAATGACCTTTTTGGCCCAGTTGGGC
# B9: NRC3_wobSeed76_DR3_A17G_o1 (dsDNA)
# DNA 1: GCCCTACTGGGCCAAAGAGGTCATTGATGCCGATAAGCGATTGACAGCGTAGAATGAAGG
# DNA 2: CCTTCATTCTACGCTGTCAATCGCTTATCGGCATCAATGACCTCTTTGGCCCAGTAGGGC
# B10: NRC3_wobSeed76_DR3_G20T_o1 (dsDNA)
# DNA 1: GCCCTACTGGGCCAAAAAGTTCATTGATGCCGATAAGCGATTGACAGCGTAGAATGAAGG
# DNA 2: CCTTCATTCTACGCTGTCAATCGCTTATCGGCATCAATGAACTTTTTGGCCCAGTAGGGC
# B11: NRC3_wobSeed71_DR2_G12T_o1 (dsDNA)
# DNA 1: GCCGAACGAGGTCATGAGTTGATAGCAAATGCCGATGCGATTGACAGCGTAGAATGAAGG
# DNA 2: CCTTCATTCTACGCTGTCAATCGCATCGGCATTTGCTATCAACTCATGACCTCGTTCGGC
# B12: NRC3_wobSeed97_DR4_A26C_o1 (dsDNA)
# DNA 1: GCCAAACTAGGTCACGAAAGGTCAACGTCGAATGACGCGATTGACAGCGTAGAATGAAGG
# DNA 2: CCTTCATTCTACGCTGTCAATCGCGTCATTCGACGTTGACCTTTCGTGACCTAGTTTGGC
# B13: NRC3_wobSeed66_DR2_T16G_o1 (dsDNA)
# DNA 1: GCAATACAGGGTCACGAGGCCAGAGTAGGTACGAATGCGATTGACAGCGTAGAATGAAGG
# DNA 2: CCTTCATTCTACGCTGTCAATCGCATTCGTACCTACTCTGGCCTCGTGACCCTGTATTGC
# B14: NRC3_wobSeed14_DR0_T23G_o1 (dsDNA)
# DNA 1: GCCCTGCTAGGTCATGGTCAGCGAATCTACAGTATGGCGATTGACAGCGTAGAATGAAGG
# DNA 2: CCTTCATTCTACGCTGTCAATCGCCATACTGTAGATTCGCTGACCATGACCTAGCAGGGC
# B15: NRC3_wobSeed27_DR1_A9T_o1 (dsDNA)
# DNA 1: GCACTCGGTGGACAAAGGTCAGAGCTACGCCAGTGAGCGATTGACAGCGTAGAATGAAGG
# DNA 2: CCTTCATTCTACGCTGTCAATCGCTCACTGGCGTAGCTCTGACCTTTGTCCACCGAGTGC
# B16: NRC3_wobSeed17_DR0_T21G_o1 (dsDNA)
# DNA 1: GCATATGTAGGTTAGGGTCAGTCAGAAAGTAGGGAAGCGATTGACAGCGTAGAATGAAGG
# DNA 2: CCTTCATTCTACGCTGTCAATCGCTTCCCTACTTTCTGACTGACCCTAACCTACATATGC
# B17: NRC3_wobSeed13_DR0_C7T_o1 (dsDNA)
# DNA 1: GCCGTCTAAGGTCAAGGTCAGTGAAAGAGACTCGAAGCGATTGACAGCGTAGAATGAAGG
# DNA 2: CCTTCATTCTACGCTGTCAATCGCTTCGAGTCTCTTTCACTGACCTTGACCTTAGACGGC
# B18: NRC3_wobSeed110_DR4_C26T_o1 (dsDNA)
# DNA 1: GCTCTGCTAGGTCAACGATGGTCAGTTAATCTGCTAGCGATTGACAGCGTAGAATGAAGG
# DNA 2: CCTTCATTCTACGCTGTCAATCGCTAGCAGATTAACTGACCATCGTTGACCTAGCAGAGC
# B19: NRC3_random_hg19_374_o1 (dsDNA)
# DNA 1: GCTAGACTGGCGACTGCTTGATTCATGGCTGAGTCTGCGATTGACAGCGTAGAATGAAGG
# DNA 2: CCTTCATTCTACGCTGTCAATCGCAGACTCAGCCATGAATCAAGCAGTCGCCAGTCTAGC
# B20: NRC3_wobSeed12_DR0_T19C_o1 (dsDNA)
# DNA 1: GCCCGACTGGGGCAAGGTCACCATAACGCACAGCCAGCGATTGACAGCGTAGAATGAAGG
# DNA 2: CCTTCATTCTACGCTGTCAATCGCTGGCTGTGCGTTATGGTGACCTTGCCCCAGTCGGGC
# B21: NRC3_wobSeed39_DR1_G4C_o1 (dsDNA)
# DNA 1: GCCCAACTAGGTCAAAGGACAGTGAAAGGCGACGTAGCGATTGACAGCGTAGAATGAAGG
# DNA 2: CCTTCATTCTACGCTGTCAATCGCTACGTCGCCTTTCACTGTCCTTTGACCTAGTTGGGC
# B22: NRC3_wobSeed39_DR1_A16G_o1 (dsDNA)
# DNA 1: GCCGAACTAGGTCAAGGGACAGTGAAAGGCGACGTAGCGATTGACAGCGTAGAATGAAGG
# DNA 2: CCTTCATTCTACGCTGTCAATCGCTACGTCGCCTTTCACTGTCCCTTGACCTAGTTCGGC
# B23: NRC3_wobSeed44_DR1_G17T_o1 (dsDNA)
# DNA 1: GCTGAATGAGGTTAAATATCAGGGAACGTGGCGTCGGCGATTGACAGCGTAGAATGAAGG
# DNA 2: CCTTCATTCTACGCTGTCAATCGCCGACGCCACGTTCCCTGATATTTAACCTCATTCAGC
# B24: NRC3_random_hg19_241_o1 (dsDNA)
# DNA 1: GCTGTAACGTGGGCTTCACTGTCGGGTCCAGCCCACGCGATTGACAGCGTAGAATGAAGG
# DNA 2: CCTTCATTCTACGCTGTCAATCGCGTGGGCTGGACCCGACAGTGAAGCCCACGTTACAGC
# B25: NRC3_random_hg19_149_o1 (dsDNA)
# DNA 1: GCATGAAACCATGCTCGAGTGTGTGTGTGTGTGTATGCGATTGACAGCGTAGAATGAAGG
# DNA 2: CCTTCATTCTACGCTGTCAATCGCATACACACACACACACACTCGAGCATGGTTTCATGC
# B26: NRC3_wobSeed137_DR5_A5T_o1 (dsDNA)
# DNA 1: GCATTTGTAGGTTACATCCGGGTCATTCAGGCTATGGCGATTGACAGCGTAGAATGAAGG
# DNA 2: CCTTCATTCTACGCTGTCAATCGCCATAGCCTGAATGACCCGGATGTAACCTACAAATGC
# B27: NRC3_wobSeed49_DR2_A6G_o1 (dsDNA)
# DNA 1: GCCAAGCTAGGTCAAGAGGTCAAAGTCCGCTTCCCGGCGATTGACAGCGTAGAATGAAGG
# DNA 2: CCTTCATTCTACGCTGTCAATCGCCGGGAAGCGGACTTTGACCTCTTGACCTAGCTTGGC
# B28: NRC3_wobSeed136_DR5_G11T_o1 (dsDNA)
# DNA 1: GCTAGCCTAGTTCATTCAGGGGCCAGTATAGAAAGCGCGATTGACAGCGTAGAATGAAGG
# DNA 2: CCTTCATTCTACGCTGTCAATCGCGCTTTCTATACTGGCCCCTGAATGAACTAGGCTAGC
# B29: NRC3_wobSeed136_DR5_T8G_o1 (dsDNA)
# DNA 1: GCTAGCCGAGGTCATTCAGGGGCCAGTATAGAAAGCGCGATTGACAGCGTAGAATGAAGG
# DNA 2: CCTTCATTCTACGCTGTCAATCGCGCTTTCTATACTGGCCCCTGAATGACCTCGGCTAGC
# Legend:
# Test in all cases: no ligand; PBM; 270 nM : 90 nM RXRa; PBS pH 7.4, 2% milk, 0.02% Triton X-100, 1 mM DTT, BSA, 0.4 mg/ml salmon testes DNA
# [1] = target: FXR:RXRa (Homo sapiens, UniProt Q96RI1;P19793 full;full); conditions: tags: His kept;His cleaved; copies: 1;1; label: surface-attached array probe
# Summary of the method: (§1)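 Random background probes are the reference for binding z-scores. These scores derive from regression-normalized fluorescence on custom Agilent 4×180K protein-binding microarrays incubated 1 h with ligand-free nuclear receptor dimers. Binding was detected with antibodies against each partner (one per run).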
# [2] = target: RARg:RXRa (Homo sapiens, UniProt P13631;P19793 full;full); conditions: tags: His kept;His cleaved; copies: 1;1; label: surface-attached array probe
# Summary of the method: as §1
# [3] = target: RARb:RXRa (Homo sapiens, UniProt P10826;P19793 full;full); conditions: tags: His kept;His cleaved; copies: 1;1; label: surface-attached array probe
# Summary of the method: as §1
# [4] = target: PPARa:RXRa (Homo sapiens, UniProt Q07869;P19793 full;full); conditions: tags: GST kept;His cleaved; copies: 1;1; label: surface-attached array probe
# Summary of the method: as §1
# RARg:RXRa, sequence (P13631 whole entry, chain 1 of 2): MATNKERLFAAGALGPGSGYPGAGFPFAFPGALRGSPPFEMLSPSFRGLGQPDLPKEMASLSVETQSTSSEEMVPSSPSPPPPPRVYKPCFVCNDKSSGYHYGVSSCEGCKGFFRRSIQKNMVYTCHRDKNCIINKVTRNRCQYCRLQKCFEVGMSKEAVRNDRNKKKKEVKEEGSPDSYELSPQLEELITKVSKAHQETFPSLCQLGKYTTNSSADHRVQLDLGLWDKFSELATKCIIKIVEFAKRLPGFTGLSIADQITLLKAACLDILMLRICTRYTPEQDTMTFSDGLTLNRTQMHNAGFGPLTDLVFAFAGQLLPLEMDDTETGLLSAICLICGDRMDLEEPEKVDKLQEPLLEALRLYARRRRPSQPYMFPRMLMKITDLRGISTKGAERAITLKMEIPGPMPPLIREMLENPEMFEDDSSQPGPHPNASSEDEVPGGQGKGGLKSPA
# RARg:RXRa, sequence (P19793 whole entry, chain 2 of 2): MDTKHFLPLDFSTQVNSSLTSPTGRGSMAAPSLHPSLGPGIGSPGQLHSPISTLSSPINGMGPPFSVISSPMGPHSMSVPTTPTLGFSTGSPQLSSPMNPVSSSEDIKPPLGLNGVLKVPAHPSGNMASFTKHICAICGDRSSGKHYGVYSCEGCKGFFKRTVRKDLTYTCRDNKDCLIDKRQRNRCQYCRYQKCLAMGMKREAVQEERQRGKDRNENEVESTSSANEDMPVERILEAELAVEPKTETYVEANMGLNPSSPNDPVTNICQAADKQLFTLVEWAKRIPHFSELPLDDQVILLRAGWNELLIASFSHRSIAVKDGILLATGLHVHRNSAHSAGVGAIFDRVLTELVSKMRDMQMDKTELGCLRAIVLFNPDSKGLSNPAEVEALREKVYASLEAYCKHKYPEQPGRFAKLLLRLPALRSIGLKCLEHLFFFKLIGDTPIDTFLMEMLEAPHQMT
# PPARa:RXRa, sequence (Q07869 whole entry, chain 1 of 2): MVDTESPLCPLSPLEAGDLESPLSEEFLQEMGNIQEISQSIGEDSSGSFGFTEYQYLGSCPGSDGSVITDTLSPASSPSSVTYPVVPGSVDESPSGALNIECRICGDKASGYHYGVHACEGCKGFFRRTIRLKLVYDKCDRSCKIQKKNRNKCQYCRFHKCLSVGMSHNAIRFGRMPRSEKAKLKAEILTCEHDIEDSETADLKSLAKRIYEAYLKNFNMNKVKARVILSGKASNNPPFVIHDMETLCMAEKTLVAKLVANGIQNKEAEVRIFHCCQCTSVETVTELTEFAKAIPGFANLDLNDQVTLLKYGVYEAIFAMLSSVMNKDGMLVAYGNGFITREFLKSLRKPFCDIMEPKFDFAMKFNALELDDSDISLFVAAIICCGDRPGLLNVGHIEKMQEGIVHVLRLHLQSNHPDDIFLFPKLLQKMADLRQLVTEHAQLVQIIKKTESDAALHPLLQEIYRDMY
# PPARa:RXRa, sequence (P19793 whole entry, chain 2 of 2): as the sequence (P19793 whole entry, chain 2 of 2) above
# RARb:RXRa, sequence (P10826 whole entry, chain 1 of 2): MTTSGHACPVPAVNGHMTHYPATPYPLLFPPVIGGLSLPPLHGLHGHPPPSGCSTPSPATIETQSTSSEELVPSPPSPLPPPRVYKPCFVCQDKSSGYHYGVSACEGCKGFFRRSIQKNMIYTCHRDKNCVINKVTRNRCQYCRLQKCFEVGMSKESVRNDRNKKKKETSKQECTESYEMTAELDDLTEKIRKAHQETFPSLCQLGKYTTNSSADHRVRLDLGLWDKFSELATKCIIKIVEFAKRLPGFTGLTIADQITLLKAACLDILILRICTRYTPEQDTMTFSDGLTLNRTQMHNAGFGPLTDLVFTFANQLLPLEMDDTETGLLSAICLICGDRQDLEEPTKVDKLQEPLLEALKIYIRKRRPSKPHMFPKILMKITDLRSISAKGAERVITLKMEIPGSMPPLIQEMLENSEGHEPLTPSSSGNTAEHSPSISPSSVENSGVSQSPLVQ
# RARb:RXRa, sequence (P19793 whole entry, chain 2 of 2): as the sequence (P19793 whole entry, chain 2 of 2) above
# FXR:RXRa, sequence (Q96RI1 whole entry, chain 1 of 2): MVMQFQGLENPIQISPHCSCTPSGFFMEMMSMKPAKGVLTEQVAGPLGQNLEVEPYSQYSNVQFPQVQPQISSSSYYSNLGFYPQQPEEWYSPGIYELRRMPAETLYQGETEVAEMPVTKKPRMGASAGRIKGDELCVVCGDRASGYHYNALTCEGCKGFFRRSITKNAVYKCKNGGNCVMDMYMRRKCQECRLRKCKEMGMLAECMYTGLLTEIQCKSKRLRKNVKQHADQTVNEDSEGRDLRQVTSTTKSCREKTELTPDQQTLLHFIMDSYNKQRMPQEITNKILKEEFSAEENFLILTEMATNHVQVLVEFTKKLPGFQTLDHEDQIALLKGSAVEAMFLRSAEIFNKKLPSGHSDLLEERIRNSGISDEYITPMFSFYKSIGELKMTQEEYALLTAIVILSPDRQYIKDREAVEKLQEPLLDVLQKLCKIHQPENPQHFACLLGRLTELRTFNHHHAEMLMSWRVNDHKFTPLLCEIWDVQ
# FXR:RXRa, sequence (P19793 whole entry, chain 2 of 2): as the sequence (P19793 whole entry, chain 2 of 2) above
binder,measurement,setting,value
B1,binding signal,[1],3.18 PBM z-score against 500 random probes
B2,binding signal,[1],3.03 PBM z-score against 500 random probes
B3,binding signal,[1],3.15 PBM z-score against 500 random probes
B4,binding signal,[1],-0.43 PBM z-score against 500 random probes
same,binding signal,[2],-0.2 PBM z-score against 500 random probes
B5,binding signal,[3],5.82 PBM z-score against 500 random probes
B6,binding signal,[3],5.63 PBM z-score against 500 random probes
B7,binding signal,[1],3.34 PBM z-score against 500 random probes
B8,binding signal,[1],3.39 PBM z-score against 500 random probes
B9,binding signal,[1],3.31 PBM z-score against 500 random probes
B10,binding signal,[1],0.49 PBM z-score against 500 random probes
B11,binding signal,[4],6.51 PBM z-score against 500 random probes
same,binding signal,[1],7.78 PBM z-score against 500 random probes
B12,binding signal,[3],6.08 PBM z-score against 500 random probes
B13,binding signal,[4],6.53 PBM z-score against 500 random probes
same,binding signal,[1],7.9 PBM z-score against 500 random probes
B14,binding signal,[4],3.44 PBM z-score against 500 random probes
same,binding signal,[1],4.17 PBM z-score against 500 random probes
B15,binding signal,[1],3.23 PBM z-score against 500 random probes
B16,binding signal,[1],3 PBM z-score against 500 random probes
B17,binding signal,[3],6 PBM z-score against 500 random probes
B18,binding signal,[1],3.07 PBM z-score against 500 random probes
B19,binding signal,[1],-0.55 PBM z-score against 500 random probes
same,binding signal,[2],-0.21 PBM z-score against 500 random probes
B20,binding signal,[1],3.29 PBM z-score against 500 random probes
B21,binding signal,[1],3.67 PBM z-score against 500 random probes
same,binding signal,[2],3.99 PBM z-score against 500 random probes
B22,binding signal,[1],3.42 PBM z-score against 500 random probes
B23,binding signal,[1],3.09 PBM z-score against 500 random probes
B24,binding signal,[4],-0.77 PBM z-score against 500 random probes
same,binding signal,[1],-0.46 PBM z-score against 500 random probes
B25,binding signal,[1],-0.44 PBM z-score against 500 random probes
same,binding signal,[2],-0.37 PBM z-score against 500 random probes
B26,binding signal,[1],3.26 PBM z-score against 500 random probes
B27,binding signal,[3],5.77 PBM z-score against 500 random probes
B28,binding signal,[4],0.45 PBM z-score against 500 random probes
same,binding signal,[1],0.31 PBM z-score against 500 random probes
B29,binding signal,[1],7.79 PBM z-score against 500 random probes
same,binding signal,[2],7.94 PBM z-score against 500 random probes

# — paper PMC6555819, “Comprehensive study of nuclear receptor DNA binding provides a revised framework for understanding receptor specificity”
